Data taken from article PMC4854733 (The Journal of Experimental Medicine, 2016).

Tests used:
[1] = molecular target: the molecule itself; assay: negative-stain electron microscopy
[2] = molecular target: the molecule itself; assay: fluorescence polarisation
[3] = molecular target: the molecule itself; assay: SEC

B1: ASC^CARD-SUMO (domain or fragment)
chain: AAKPGLHFIDQHRAALIARVTNVEWLLDALYGKVLTDEQYQAVRAEPTNPSKMRKLFSFTPAWNWTCKDLLLQALRESQSYLVEDLERS
B1: binds [1].

B2: fluorescently labeled ASC^CARD-SUMO (domain or fragment)
chain: B1 chain
modifications: fluorophore joined by sortase at the C-terminal sortase motif
B2: binds [2].

B3: GFP-ASC^CARD (domain or fragment)
chain: B1 chain
B3: binds [3].
